Laboratory results published in patent US20080160018A1 (PDL BIOPHARMA, published 2008).

Key:
[1] = biological target: T1, p75 chain of the human IL-2 receptor on YTJB cells (human, UniProt P14784 27-551); test: flow cytometry on YTJB cells
T1 construct: whole, on cells; also called p75 protein; p75 antigen
T1 sequence (looked up): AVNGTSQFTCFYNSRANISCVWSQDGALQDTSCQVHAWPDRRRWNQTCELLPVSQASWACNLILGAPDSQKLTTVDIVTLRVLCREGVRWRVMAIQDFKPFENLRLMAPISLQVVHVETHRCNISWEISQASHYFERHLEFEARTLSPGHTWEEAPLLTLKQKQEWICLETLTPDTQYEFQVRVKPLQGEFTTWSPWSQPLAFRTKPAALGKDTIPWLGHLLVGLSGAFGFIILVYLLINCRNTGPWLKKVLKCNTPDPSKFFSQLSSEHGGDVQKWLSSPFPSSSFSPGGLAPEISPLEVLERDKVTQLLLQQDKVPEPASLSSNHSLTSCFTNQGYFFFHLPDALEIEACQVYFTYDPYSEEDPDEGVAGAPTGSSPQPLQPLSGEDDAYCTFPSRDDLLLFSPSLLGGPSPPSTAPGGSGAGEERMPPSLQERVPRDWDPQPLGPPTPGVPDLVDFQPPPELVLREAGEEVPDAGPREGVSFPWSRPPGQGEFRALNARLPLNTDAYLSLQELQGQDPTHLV
Description: Cells were suspended in FACS buffer (PBS+2% BSA+0.1% azide) at approximately 5×10⁶/ml. 100 ul of cell suspension was transferred to a polystyrene tube and incubated with 100 ng of purified antibody on ice for 30 min. The cells were washed with FACS buffer and incubated with goat anti-human Ig antibody on ice for another 30 min. Then the cells were washed and incubated with FITC labeled rabbit anti-goat Ig antibody for 30 min. The cells were washed again and finally resuspended in PBS+1% paraformaldehyde. Cells were analyzed on a FACSmate (Becton Dickinson).

[2] = biological target: T1, p75 chain of the human IL-2 receptor on …; test: competition with radio-iodinated mouse mik-β1 on YTJB cells, Berzofsky calculation
Description: After incubation for 2 hr at 0° C. the cells were washed twice with binding buffer without mouse Ig and collected by centrifugation. The radioactivity bound to cells was measured and expressed as the ratio of bound/free cpm.

B1: chimeric mik-β1 antibody (antibody, V domains shown)
VH: QVQLKQSGPGLVQPSQSLSITCTVSGFSVTSYGVHWIRQSPGKGLEWLGVIWSGGSTDYNAAFISRLTISKDNSKSQVFFKVNSLQPADTAIYYCARAGDYNYDGFAYWGQGTLVTVSA
VL: QIVLTQSPAIMSASPGEKVTMTCSGSSSVSFMYWYQQRPGSSPRLLIYDTSNLASGVPVRFSGSGSGTSYSLTISRMEAEDAATYYCQQWSTYPLTFGAGTKLELK
binding result [1]: binds

B2: humanized mik-β1 antibody (antibody, V domains shown)
VH: EVQLLESGGGLVQPGGSLRLSCAASGFTVTSYGVHWVRQAPGKGLEWVGVIWSGGSTDYNAAFISRFTISRDNSKNTLYLQMNSLQAEDTAIYYCARAGDYNYDGFAYWGQGTLVTVSS
VL: DIQMTQSPSSLSASVGDRVTITCSGSSSVSFMYWYQQKPGKAPKLLIYDTSNLASGVPSRFSGSGSGTDYTFTISSLQPEDIATYYCQQWSTYPLTFGQGTKVEVK
fold difference of binding affinity against the mouse mik-β1 antibody [2]: ≤ 2 fold
